Source: PMC7922766

Molecular target: Full-length recombinant human SIRT1 (human) (UniProt Q96EB6)
Sequence of UniProt Q96EB6 (Q96EB6 whole entry): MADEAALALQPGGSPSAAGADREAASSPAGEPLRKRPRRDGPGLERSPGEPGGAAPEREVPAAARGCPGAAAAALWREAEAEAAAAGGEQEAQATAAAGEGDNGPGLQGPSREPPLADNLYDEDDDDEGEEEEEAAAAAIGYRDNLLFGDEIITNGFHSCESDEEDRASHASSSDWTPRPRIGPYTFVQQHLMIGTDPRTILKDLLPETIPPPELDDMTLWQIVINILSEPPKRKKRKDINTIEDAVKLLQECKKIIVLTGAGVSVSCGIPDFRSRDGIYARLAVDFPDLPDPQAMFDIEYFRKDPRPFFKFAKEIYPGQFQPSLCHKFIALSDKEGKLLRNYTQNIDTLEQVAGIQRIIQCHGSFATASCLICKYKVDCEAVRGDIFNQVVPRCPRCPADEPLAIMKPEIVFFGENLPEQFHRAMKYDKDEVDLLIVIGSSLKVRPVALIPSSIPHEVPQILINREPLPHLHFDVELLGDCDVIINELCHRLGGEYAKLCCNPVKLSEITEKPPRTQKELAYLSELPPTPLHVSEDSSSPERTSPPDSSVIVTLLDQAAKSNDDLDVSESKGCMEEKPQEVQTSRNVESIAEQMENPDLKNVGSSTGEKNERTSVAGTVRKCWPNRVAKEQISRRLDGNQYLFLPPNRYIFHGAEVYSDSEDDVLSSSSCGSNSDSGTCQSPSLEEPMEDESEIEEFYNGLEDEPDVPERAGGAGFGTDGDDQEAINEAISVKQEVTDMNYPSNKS

## H4K16Ac synthetic peptide
  Km of the peptide substrate in SIRT1-catalysed deacetylation (HPLC assay, 500 uM NAD+, 0.5 uM SIRT1, 100 mM phosphate pH 7.5, 37 °C): 46.4 µM
